System: Exonuclease III (Escherichia coli)
Assay: cleavage_in_vitro
Details: 37 C, 66 mM Tris-HCl pH 8, 0.66 mM MgCl2

Row | Substance | activity (nucleotides/min) (digested from 5' protruding end, not from SstI 3' protruding end, 14.4 kb removed per end in 32 min) | activity (nucleotides/min) (after 25 s delay, one-way digestion, no sequence preference seen)
1 | Bacteriophage lambda DNA SstI terminal fragments (24.8 kb and 22.6 kb), 5' 12-nt protruding end | 450 | 
2 | M13 mp18 with 4.5 kb EcoRI Drosophila Gart insert, SalI/SphI cut |  | 450
